Measured values as given in PMC4813486.
Where “and” joins values, the source holds several entries; their conditions need not be identical. Equal values may be shown once.

How the values were obtained:
[1] = target: full-length β2-microglobulin (UniProt P61769); experiment: native MS; ion mobility MS, 15 μM protein, 100 mM ammonium acetate, pH 5
[2] = target: full-length β2-microglobulin (UniProt P61769); experiment: native MS; ion mobility MS, 30 μM protein, 100 mM ammonium acetate, pH 5 (data not shown)
[3] = target: full-length β2-microglobulin (UniProt P61769); experiment: cross-linking; BS3-d0/d4 1:1, 25 °C, 1 h; gel electrophoresis (NuPAGE); bands digested in-gel with trypsin; LC-MS/MS

- stoichiometry N [1]: 2
- stoichiometry N [2]: 3 and 4
- stoichiometry N [3]: 2 and 3 and 4
Substance: full-length β2-microglobulin (from UniProt P61769 21-119) (natural protein)
